PMC8141814 (Frontiers in Molecular Biosciences, 2021)

Target: GS-nsp5 C145A (GS added nsp5 construct with the active site mutation C145A) (SARS-CoV-2)
Test: NMR, 2D [15N,1H]-BEST-TROSY spectra compared

Substance: GS-nsp5 C145A (GS added nsp5 construct with the active site mutation C145A) (enzyme)
- stoichiometry N: 2
